Data set [1] has as its target His-tagged TetR (Tet repressor) (UniProt P04483). The experiment in a line: competition EMSA. On the technique in general: A gel shift assay detects complexes by their altered migration in electrophoresis.
The target is the same in data set [2]. The experiment in a line: competition EMSA. This is another data set of the same source.
The target is the same in data set [3]. In words: EMSA.

The record followed here is publication PMC3239198.

Where two headings read alike, the source gives them in different places.

As usually defined, the Ki is the dissociation constant of the complex between target and ligand, obtained from inhibition or displacement. A lower Ki goes with higher affinity. One may read the Kd as the free concentration of one partner at which half of the binding sites on the other are occupied at equilibrium, for simple one-to-one binding. A higher Kd goes with weaker binding.

Sequence of His-tagged TetR (Tet repressor) (P04483 whole entry): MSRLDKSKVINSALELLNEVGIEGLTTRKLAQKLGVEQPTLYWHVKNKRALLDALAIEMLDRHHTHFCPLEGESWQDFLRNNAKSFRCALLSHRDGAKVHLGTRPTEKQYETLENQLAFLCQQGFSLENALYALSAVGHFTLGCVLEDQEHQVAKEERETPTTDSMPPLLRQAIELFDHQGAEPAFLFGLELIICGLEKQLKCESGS

In the case of “GGGAGAUACGCGUAUCAAGCAGCAUGUUAUGGGUCAUCACAGACCAGAGAAAAGCUUGAUACGCGAAAGGAG [TetR aptamer 12-1R (pDA1), active]”, the results for the inhibition constant (Ki) in data set [1] and in data set [2] were 76 nM and 58 nM, respectively. Consider “TTGACACTCTATCATTGATAGAGTTAT (double strand) [tetO dsDNA (ODA68/ODA69)]”, for which the dissociation constant Kd in data set [3] was 60 nM. This counts as double-digit nanomolar.
